Measured values published in patent US20140004107A1 (published 2014).

Experiments:
[1] = target: T1, biotinylated human ST2-Fc (human, UniProt Q01638 19-331, biotinylated); experiment: AlphaScreen, IL-33 mediated association of biotinylated human ST2-Fc with human AcP-FH, antibody at 12.5 ug/ml
T1 construct: also called ST2-Fc fusion protein; not shown: human antibody Fc domain
T1 sequence: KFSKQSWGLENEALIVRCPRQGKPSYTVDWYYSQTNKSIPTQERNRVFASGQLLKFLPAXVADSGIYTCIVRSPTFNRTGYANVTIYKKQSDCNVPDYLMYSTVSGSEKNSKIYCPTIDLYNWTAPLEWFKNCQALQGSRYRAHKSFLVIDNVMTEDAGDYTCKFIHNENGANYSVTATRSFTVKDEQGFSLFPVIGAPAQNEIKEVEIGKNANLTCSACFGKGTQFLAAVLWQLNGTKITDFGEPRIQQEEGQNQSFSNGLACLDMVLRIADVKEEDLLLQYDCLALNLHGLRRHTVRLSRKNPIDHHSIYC
Protocol: In the second assay, antibodies were evaluated for the ability to inhibit the IL-33 mediated association of ST2 with the co-receptor AcP. […] The ST2/AcP AlphaScreen was conducted in 8 ul reactions in a 384 well optiplate (Perkin Elmer). […] After the addition of all assay components the plates were incubated overnight in the dark at room temperature. The next day the plates were read on a 2103 Envision multilable reader (Perkin Elmer) using the same parameters as above for the first assay.

[2] = target: T2, human ST2 (SPR analyte) (human, UniProt Q01638 19-322); experiment: SPR Biacore 4000, kd at pH 5.5 against kd at pH 7.4
T2 construct: The ST2 reagent injected in SPR; leader is 1-18; also called hu ST2
T2 sequence: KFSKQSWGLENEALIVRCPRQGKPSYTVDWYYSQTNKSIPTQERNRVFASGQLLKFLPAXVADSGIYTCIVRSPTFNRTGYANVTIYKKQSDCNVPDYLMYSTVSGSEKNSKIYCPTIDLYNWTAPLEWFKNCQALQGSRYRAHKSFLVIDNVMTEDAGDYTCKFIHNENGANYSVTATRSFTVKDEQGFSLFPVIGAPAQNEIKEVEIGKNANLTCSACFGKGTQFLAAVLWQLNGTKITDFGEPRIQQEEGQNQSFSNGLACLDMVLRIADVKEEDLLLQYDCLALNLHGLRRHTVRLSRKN
Protocol: (§1) The association (5 min) rates at pH 7.4 and dissociation (10 min) rates at pH 5.5 and 7.4 were monitored at a flow rate of 30 uL/min. The reference subtracted data was fit to a 1:1 model in Scrubber.

[3] = target: T3, human ST2 on human primary cells (human, UniProt Q01638 19-556); experiment: cell-based or functional assay
T3 sequence: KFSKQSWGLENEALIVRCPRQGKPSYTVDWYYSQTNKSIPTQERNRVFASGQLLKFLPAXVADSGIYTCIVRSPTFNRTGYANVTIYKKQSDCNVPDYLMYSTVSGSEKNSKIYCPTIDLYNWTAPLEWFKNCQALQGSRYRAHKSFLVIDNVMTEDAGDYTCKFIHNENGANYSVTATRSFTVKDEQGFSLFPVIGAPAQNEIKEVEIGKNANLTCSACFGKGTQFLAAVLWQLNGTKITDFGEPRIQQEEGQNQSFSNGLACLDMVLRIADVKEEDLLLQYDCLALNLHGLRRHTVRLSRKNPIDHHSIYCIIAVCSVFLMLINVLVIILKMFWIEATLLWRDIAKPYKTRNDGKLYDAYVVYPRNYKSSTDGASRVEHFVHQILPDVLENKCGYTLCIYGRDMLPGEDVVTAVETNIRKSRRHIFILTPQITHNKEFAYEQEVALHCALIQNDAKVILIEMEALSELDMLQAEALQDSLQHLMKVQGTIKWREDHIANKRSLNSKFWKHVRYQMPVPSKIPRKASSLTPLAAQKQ

[4] = target: T2, human ST2 (SPR analyte); experiment: SPR Biacore 4000, association at pH 7.4, dissociation at pH 7.4 (estimated kd)
Protocol: as §1

[5] = target: T4, soluble human ST2-FLAG His (human, UniProt Q01638 19-322, limits assumed); experiment: AlphaScreen, biotinylated human IL-33 with human ST2-FH, antibody at 12.5 ug/ml
T4 construct: also called human ST2-FH; 6xhistidine tagged human ST2; not shown: FLAG and 6x histidine tags
T4 sequence: T2 sequence

[6] = target: T5, cynomolgus monkey ST2 (SPR analyte) (cynomolgus monkey, UniProt Q01638 19-322 (human entry)); experiment: SPR Biacore 3000, captured antibody, ST2 analyte, 25 C
T5 construct: The cyno ST2 reagent injected in SPR; leader is 1-18; also called cy ST2
T5 chain: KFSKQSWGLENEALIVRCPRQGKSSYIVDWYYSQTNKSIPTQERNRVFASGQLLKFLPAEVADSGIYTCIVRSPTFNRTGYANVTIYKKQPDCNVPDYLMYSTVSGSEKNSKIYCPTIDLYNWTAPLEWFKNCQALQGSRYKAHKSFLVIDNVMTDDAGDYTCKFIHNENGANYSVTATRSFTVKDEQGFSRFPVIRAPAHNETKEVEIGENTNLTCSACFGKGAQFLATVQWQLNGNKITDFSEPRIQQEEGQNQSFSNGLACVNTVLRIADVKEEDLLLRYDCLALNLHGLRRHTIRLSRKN

[7] = target: T2, human ST2 (SPR analyte); experiment: as above
[8] = target: T3, human ST2 on human primary cells; experiment: cell-based or functional assay; remark: listed apart in the source
[9] = target: T3, human ST2 on human primary cells; experiment: cell-based or functional assay; remark: listed apart in the source
[10] = target: T6, cynomolgus monkey ST2 on cynomolgus CD4+ T cells (cynomolgus monkey, UniProt Q01638 19-556 (human entry)); experiment: cell-based or functional assay
T6 chain: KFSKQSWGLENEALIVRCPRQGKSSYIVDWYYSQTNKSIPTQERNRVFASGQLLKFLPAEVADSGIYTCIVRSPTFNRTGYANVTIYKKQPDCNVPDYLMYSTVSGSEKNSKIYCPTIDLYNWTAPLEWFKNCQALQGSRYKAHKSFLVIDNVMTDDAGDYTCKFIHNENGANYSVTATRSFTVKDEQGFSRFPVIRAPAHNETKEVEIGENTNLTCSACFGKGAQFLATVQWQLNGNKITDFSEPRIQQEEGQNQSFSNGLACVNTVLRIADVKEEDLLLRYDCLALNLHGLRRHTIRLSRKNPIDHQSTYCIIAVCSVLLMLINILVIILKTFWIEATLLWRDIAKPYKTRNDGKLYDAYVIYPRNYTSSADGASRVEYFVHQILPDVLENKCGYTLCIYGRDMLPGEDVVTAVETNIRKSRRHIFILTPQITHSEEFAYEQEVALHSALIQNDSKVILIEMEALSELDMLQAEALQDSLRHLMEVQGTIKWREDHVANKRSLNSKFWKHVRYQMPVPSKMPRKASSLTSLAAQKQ

[11] = target: T2, human ST2 (SPR analyte); experiment: SPR Biacore 4000, association at pH 7.4, dissociation at pH 5.5 (estimated kd)
Protocol: as §1

% inhib ST2-AcP AS 12.5 ug/ml [1]: 96.4%
pH 5.5/pH 7.4 koff fold change [2]: 8 fold
IC50 of inhibition of human IL-33-induced IL-5 production from human CD4+ T cells [3]: 5.25 nM
koff [4]: 2.98e-05 s⁻¹
% inhib ST2-IL33 AS 12.5 ug/ml [5]: 99.2%
Kd [6]: 0.0322 nM
koff [6]: 1.16e-05 s⁻¹
kon [6]: 360000 M⁻¹ s⁻¹
Kd [7]: 0.0339 nM
koff [7]: 1.13e-05 s⁻¹
kon [7]: 333000 M⁻¹ s⁻¹
IC50 of inhibition of IL-33-dependent IFN-γ response of human NK cells (IL-33 10 ng/mL plus IL-12) [8]: 0.0412 µg/mL
IC-50, human eosinophil IL-8 release assay (IL-33 and IL-3 stimulation) [9]: 52.8 pM
IC-50, cynomolgus monkey CD4+ T cell IFNγ release assay (IL-33, IL-2 and IL-12p70 stimulation) [10]: 79.5 pM
koff [11]: 0.000238 s⁻¹
B1: Ab2 (antibody, human IgG2, kappa, V domains shown)
VH: EVQLVQSGAEVKKPGESLKISCKGSGYSFTNYWIGWVRQMPGKGLEWMGIIYPGNSDTRFSPSFQGQVTISADKSITTAYLQWSSLKASDTAMYYCARHGTSSDYYGLDVWGQGTTVTVSS
VL: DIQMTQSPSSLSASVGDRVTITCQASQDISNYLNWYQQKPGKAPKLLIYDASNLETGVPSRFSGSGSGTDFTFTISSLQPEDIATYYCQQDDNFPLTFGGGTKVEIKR
notes: fully human anti-ST2 antibody
